The test system of one series is Rtt109. The conditions noted are these: ref [13–14],[21–22]; cited from earlier work.
Another series has as its system Asf1–H3:H4 complex. The series is described as follows: NMR 13C-HMQC. It is filed as binding, Asf1 Saccharomyces cerevisiae; histones Xenopus laevis. The conditions noted are these: Rtt109 added to Asf1–H3:H4–Vps75_2; 50 mM sodium citrate pH 6.5, 150 mM NaCl, 5 mM BME, 850 MHz, 298 K.
In series [1] the test system is 15N-labeled H3 in the H3:H4 complex. Kind of series: NMR 15N-HSQC CSPs of 15N-labeled histone H3 in the H3:H4 complex. It is filed as binding, Xenopus laevis. Particulars: Rtt109 added to Asf1–H3:H4 (15N-labeled H3); 50 mM sodium citrate pH 6.2, 150 mM NaCl, 5 mM BME, 600 MHz, 298 K.

Regarding “Asf1: Saccharomyces cerevisiae Asf1 (2–169), histone-specific chaperone”, the “acetyltransferase activity alone / activation of Rtt109 by chaperones (in words)” value in the series on Rtt109 was “strongly activated”. Take “Rtt109: full-length Saccharomyces cerevisiae Rtt109, fungal histone acetyltransferase”: the “Asf1 CSPs upon addition of Rtt109 in the presence of Vps75 (in words)” value in the series with Asf1–H3:H4 complex is “large Asf1 CSPs”. Moreover, the “competition with the H3 tail for Asf1 (in words)” value in series [1] is “can out-compete the H3 tail for the same interaction surface on Asf1”. Besides, the “acetyltransferase activity alone / activation of Rtt109 by chaperones (in words)” value in the series with Rtt109 is listed as “very low acetyltransferase activity”. Turning to “Vps75_2: Vps75 homodimer, histone chaperone (Saccharomyces cerevisiae)”, the “acetyltransferase activity alone / activation of Rtt109 by chaperones (in words)” value with Rtt109 is “strongly activated”.
